Here are results for 84 variants from the RNAGym collection of RNA variant scans (doi:10.1073/pnas.2313332121).

The chains are these.
B1: TPR t1 (parent)
chain: GACCAAUCUGCCCUCAGAGCUCGAGAACAUCUUCGGAUGCAGAGGAGGCAGGCUUCGGUGGCGCGAUAGCGCCAACGUCCUCAACCUCCAAUGCAUCCCACCACAUGAUGAUGCCUGAAGAGCCUUGGUUUUUUG

Variants of B1 are the subject of this data set. Put plainly: polymerase ribozyme fitness, log enrichment relative to wild type (log ratio); higher = more active; in vitro selection for triplet polymerase activity. The method, boiled down: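 Mutant libraries for each subunit of a heterodimeric triplet polymerase ribozyme were made by PCR and then transcribed. Each library underwent one round of in vitro selection in triplicate: annealing with a biotinylated primer, the partner subunit and triplets, frozen incubation at −7 °C, gel excision of extended constructs, streptavidin-bead capture and RT-PCR. Input and output libraries were Illumina-sequenced, and only genotypes with ≥10 input reads and ≥1 read per output were kept. Fitness is the logarithm, base 2, of genotype enrichment over wild-type enrichment, computed from inverse-variance-weighted replicate averages.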
With C94G G117A, the “polymerase ribozyme fitness (log ratio)” value is -2.51.
In the case of G45A C53U C97U C115U U126C U130A it was -5.76; in that of C8U G36U C56U C82A C89G, -2.15; in that of G42U G71U, -2.08.
As for C15G C72U A100U, the “polymerase ribozyme fitness (log ratio)” value is -3.69.
As for A6C A43U A83U C98U C104U, the “polymerase ribozyme fitness (log ratio)” value was -2.52.
Next, C28A C97U G110C: -1.97; G10U C13A C72U U109A: -6.62; A46C C115A: -1.52.
In the case of G35A C64U A103C G120A it was -5.9; in that of A18U C22A G113A, -3.79; in that of A68G U112C, -0.794.
Next, U7C C8G: -0.253; G36A G45U U59A C72G C97G C98U C102A A111G: -6.75.
For A43G U130C, the “polymerase ribozyme fitness (log ratio)” value was -1.1.
As to G60A C114A A121G, the “polymerase ribozyme fitness (log ratio)” value was -0.404.
A5U A37G C79G: the “polymerase ribozyme fitness (log ratio)” value is -1.97.
With U9G C56A C79G, the “polymerase ribozyme fitness (log ratio)” value is -1.55.
A18U C20U A50C G69U: the “polymerase ribozyme fitness (log ratio)” value is -1.33.
In the case of C64U G117C, the “polymerase ribozyme fitness (log ratio)” value was -2.58.
Next, C13A C49U G51U G69U A111U G120A: -6.99; G10A C62A U96A: -2.02; G23A A50U G61U G71C A100C A105C U116C U125A G128U: -5.77.
Next, G35A G51A G60U C124U: -6.94; C11G C40U C53U U87A A90U U112A G127C: -2.43.
Next, C13A C49A G71A: -1.76; G39U G120U: -0.816; G47U G58C: -0.433.
U106A U133G: the “polymerase ribozyme fitness (log ratio)” value is -0.54.
Next, G42A C85A C94G G113A: -4.07.
Next, A84C U116G: -1.83; G58C G60C: -0.636; U38G C40U: -1.03.
Next, C12U C15G G39A C56A G120A: 0.312; C86U C94A U106G: -3.23.
Take G47C C56U: the “polymerase ribozyme fitness (log ratio)” value is -1.01.
As to A50U G69A U81A A100C, the “polymerase ribozyme fitness (log ratio)” value was -4.08.
In the case of C20A U132A it was -2.24; in that of C80A G113U, -4.78.
On to C22U C94A, for which the “polymerase ribozyme fitness (log ratio)” value is -4.02.
Next, C11G A83U U106C: -0.637; G60A C79U U130C: 0.829.
Next, G61A A121U: 2.32; C11A A37G G60U C101A U131G: -2.57.
Next, C49A G60A G135C: -0.655.
In the case of C34A G61A, the “polymerase ribozyme fitness (log ratio)” value is -2.98.
In the case of G48A C64A it was -6.92.
Consider C15G G17C, for which the “polymerase ribozyme fitness (log ratio)” value was -4.24.
In the case of C62U C114G A121C G135A it was -1.63; in that of G60C U78A, -0.111; in that of C56U G135C, 0.59.
Take C72G U131A: the “polymerase ribozyme fitness (log ratio)” value was -0.469.
With A26U G44A G48U C82U G122A, the “polymerase ribozyme fitness (log ratio)” value was -6.34.
In the case of C13G C85U C88A C102A A105G C124U it was -6.67.
In the case of A6U C12U G110U it was -1.97; in that of C20A C73A, -2.14.
Next, G60A A90C C123U: 0.00477; C13A G71A A90G: -2.51; G120C C124A: 1.02.
Regarding U9C U130G, the “polymerase ribozyme fitness (log ratio)” value is -0.0168.
Next, G52A U78G: -0.374; A6C A24G A37U G48C G69C C79G C85G C101A C124U: -5.82.
In the case of G63A U96G U112A it was -1.56; in that of C49A C73U G120U, -0.216; in that of C4U C97G, -3.97.
Take C13U C62U C85A U106A: the “polymerase ribozyme fitness (log ratio)” value was -1.41.
In the case of G63A C70A A95C it was -3.3; in that of U14A C40U C64U A91U, -4.67.
As for G69C C70G C82A, the “polymerase ribozyme fitness (log ratio)” value was -4.81.
Next, C62G C115A: -1.81; G10A A37U G45U C80A G110C: -7.42; C56U U130G: -1.27.
In the case of A5U A84G U96C G113U it was -4.28; in that of G44A C98U C104U U116C, -4.16.
In the case of C94U U112A C124G it was 1.39.
On to A27U C115U, for which the “polymerase ribozyme fitness (log ratio)” value was -3.71.
In the case of G77U C114G it was -2.88; in that of G36U G39C G69A C82A G120U, -5.69; in that of G10C A27C U55C C70U, -7.04.
Next, C12A C72A: 0.329.
In the case of C53A C88U U106G it was -1.18; in that of G36A G45C A83G C101G, -2.84; in that of C4U G19A G71A G120C, -3.53.
Turning to U7G C53A A91U C101G, the “polymerase ribozyme fitness (log ratio)” value was -4.34.
